From patent publication EP3085709A1 (Genor Biopharma Co., Ltd, dated 2016)
Substitutions are numbered along the chain they refer to. Names may count otherwise. One block for each binder: values may come before it.

How the values were obtained:
[1] = molecular target: T1, recombinant human RANKL (soluble, Gly136-Asp317, N-terminal 10 His, expressed in CHO cells) (human, UniProt O14788 136-317); assay: competitive ELISA, RANK-Fc coated, antibody mixed with human RANKL (0.6 µg/ml, equal volume)
T1 construct: residues between secretion signal and His tag are not described; also called hRANKL; hRNAKL
T1 sequence: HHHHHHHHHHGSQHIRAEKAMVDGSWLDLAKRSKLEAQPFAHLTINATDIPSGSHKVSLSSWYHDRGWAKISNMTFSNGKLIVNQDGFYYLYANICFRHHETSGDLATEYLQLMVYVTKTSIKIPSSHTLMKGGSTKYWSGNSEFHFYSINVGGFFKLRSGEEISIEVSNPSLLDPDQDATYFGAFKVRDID

[2] = molecular target: T2, monkey RANKL (cynomolgus monkey, R & D Systems) (cynomolgus monkey, UniProt A0A7N9DBU4 140-317); assay: direct ELISA, monkey RANKL coated
T2 construct: also called cynomolgus monkey RANKL
T2 sequence: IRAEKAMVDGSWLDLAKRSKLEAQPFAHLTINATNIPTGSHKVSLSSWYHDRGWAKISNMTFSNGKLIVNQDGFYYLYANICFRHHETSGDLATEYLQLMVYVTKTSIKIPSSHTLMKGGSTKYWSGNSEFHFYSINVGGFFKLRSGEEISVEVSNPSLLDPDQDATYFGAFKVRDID

[3] = molecular target: T1, recombinant human RANKL (soluble, …); assay: cell-based or functional assay
[4] = molecular target: T3, mouse RANKL (R & D Systems) (mouse, UniProt O35235 158-316, limits assumed); assay: direct ELISA, mouse RANKL coated 1 µg/ml
T3 construct: also called murine RANKL
T3 sequence (looked up): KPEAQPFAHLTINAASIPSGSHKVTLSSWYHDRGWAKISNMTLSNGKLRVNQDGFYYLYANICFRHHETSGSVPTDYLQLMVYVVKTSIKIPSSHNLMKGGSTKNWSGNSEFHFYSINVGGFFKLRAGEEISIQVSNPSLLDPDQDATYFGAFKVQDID

[5] = molecular target: T1, recombinant human RANKL (soluble, …); assay: direct ELISA, human RANKL coated 1 µg/ml
[6] = molecular target: T1, recombinant human RANKL (soluble, …); assay: competitive ELISA, RANK-Fc coated, antibody pre-incubated with 0.25 µg/ml hRANKL; Plate#02
[7] = molecular target: T1, recombinant human RANKL (soluble, …); assay: ELISA, hRANKL coated 1 µg/ml; concentration at 50% Bmax; Plate#02
[8] = molecular target: T1, recombinant human RANKL (soluble, …); assay: cell-based or functional assay; remark: listed apart in the source
[9] = molecular target: T1, recombinant human RANKL (soluble, …); assay: ELISA, hRANKL coated 1 µg/ml; concentration at 50% Bmax; Plate#01
[10] = molecular target: T1, recombinant human RANKL (soluble, …); assay: competitive ELISA, RANK-Fc coated, antibody pre-incubated with 0.25 µg/ml hRANKL; Plate#01

B6: 114-7.19.12 (antibody, V domains shown)
VH: QVQLQQSGAELASPGASVKLSCKASGYTFTTYWLQWVKQRPGQGLEWIGAIYPGPGNTKYTQKFKDKATLTADKSASTAYMQLNSLTSEDSAVYYCARRGSRRGIAYWGQGTLVTVSA
VL: NIVLTQSPASLAVSLGQRATISCRASESVDSYGRSFMHWYQQRPGQPPTLLIYLASNLESGVPVRFSGSGSRTDFTLTIDPVEADDAATYYCQQDNEDPYTFGGGTKLEIK
notes: Murine monoclonal antibody purified from hybridoma supernatant
EC50 [1]: 0.28 µg/mL | EC50 [2]: 0.0129 µg/mL | EC50 value (ng/ml), inhibition of RAW264.7 differentiation [3]: 267 ng/mL | binding result [4]: no binding | EC50 [5]: 0.00993 µg/mL

B8: G12 (antibody, human IgG2, kappa, V domains shown)
VH: QVQLVQSGAELKKPGASVKLSCKASGYTFTTYWLQWVRQAPGQGLEWMGAIYPGPGNTKYTQKFKDRFTITADTSKSTAYMQLNSLKSEDSAVYYCARRGSRRGIAYWGQGTLVTVSA
VL: NIVLTQSPASLSVSLGQRATISCRASESVDSYGRSFMHWYQQRPGQAPKLLIYLASNLESGVPARFSGSGSRTDFTLTISSVEAEDEATYYCQQDNEDPYTFGGGTKLEIKG
notes: 293F cells
IC50 [6]: 0.36 µg/mL | EC50 [7]: 0.00175 µg/mL | IC50 (ng/ml) in RAW264.7 cells [8]: ~1060 ng/mL

B9: G1 (antibody, human IgG2, kappa, V domains shown)
VH: B6 VH
VL: B8 VL with S12A, A47P, K49T, A64V, S80D, S81P, E85D, E87A
notes: expressed in 293F cells; also called murine antibody G1; mouse antibody (G1)
IC50 [6]: ~0.35 µg/mL | EC50 [9]: 0.00147 µg/mL | EC50 [7]: 0.00188 µg/mL | IC50 [10]: 0.18 µg/mL

B10: G4 (antibody, human IgG2, kappa, V domains shown)
VH: B8 VH with T74K
VL: B8 VL
notes: 293F cells
EC50 [9]: 0.00195 µg/mL | IC50 (ng/ml) in RAW264.7 cells [8]: ~1080 ng/mL | IC50 [10]: ~0.36 µg/mL

B11: G2 (antibody, human IgG2, kappa, V domains shown)
VH: B8 VH with T74K
VL: B8 VL with K49R
notes: 293F cells
EC50 [9]: 0.00255 µg/mL | IC50 [10]: 0.3 µg/mL

B12: G5 (antibody, human IgG2, kappa, V domains shown)
VH: B8 VH with T74K
VL: B8 VL with R43K, A64S, S81R, E87A
notes: 293F cells
EC50 [9]: 0.00221 µg/mL | IC50 [10]: 0.29 µg/mL

B13: G3 (antibody, human IgG2, kappa, V domains shown)
VH: B8 VH with T74K
VL: B8 VL with R43K, A64S, S81A, E87A
notes: 293F cells
EC50 [9]: 0.00187 µg/mL | IC50 [10]: 0.31 µg/mL

B17: G6 (antibody, human IgG2, kappa, V domains shown)
VH: B8 VH with K12V, K13Q, A40T, F68V, K76T, K87R
VL: B8 VL with K49R
notes: 293F cells
EC50 [9]: 0.00147 µg/mL | IC50 [10]: 0.29 µg/mL

Second part, the binder after the results:

EC50 [1]: 0.93 µg/mL | EC50 [2]: 0.0198 µg/mL | EC50 value (ng/ml), inhibition of RAW264.7 differentiation [3]: 585 ng/mL | binding result [4]: no binding | EC50 [5]: 0.0185 µg/mL
B1: 114-7.38.48 (antibody, V domains shown)
VH: DVQLQESGPDLVKPSQSLSLTCTVTGYSITSAYSWHWIRQFPGNKLEWMGYIHFSGVTNYNPSLKSRISITRDASKNQFFLQLSSVTTEDTATYYCATRRETGFTYWGQGTLVTVSA
VL: DIVLTQSPATLSVTPGDSVSLSCRASQSISKNLHWYQQKSHESPRLLIKYASQSISGIPSRFSGSGSGTDFTLSINSVETEDFGIYFCQQINSWPLTFGAGTKLELK
notes: Murine monoclonal antibody from hybridoma

EC50 [1]: 0.39 µg/mL | EC50 [2]: 0.0104 µg/mL | EC50 value (ng/ml), inhibition of RAW264.7 differentiation [3]: 799 ng/mL | binding result [4]: no binding | EC50 [5]: 0.0117 µg/mL
B2: 114-6.6.29 (antibody, V domains shown)
VH: DVKLVESGGGLVKPGGSLKLSCAASGFTFSSYTMSWVRQTPEKRLEWVATISSGGSYTYYPDSVKGRFTISRDNAKNTLYLQMSSLKSEDTAMYYCTRDWDYYGTTYVGGYAMDYWGQGTSVTVSS
VL: DVLMTQTPLSLPVSLGDQASISCRSSQSIVHSNGNTYLEWYLQKPGQSPKLLIYKVSNRFSGVPDRFSGSGSGTDFTLKISRVEAEDLGVYYCFQGSHVPWTFGGGTKLEIK
notes: as for B1

EC50 [1]: 0.8 µg/mL | EC50 [2]: 0.0153 µg/mL | EC50 value (ng/ml), inhibition of RAW264.7 differentiation [3]: 311 ng/mL | binding result [4]: no binding | EC50 [5]: 0.0137 µg/mL
B3: 114-2.222 (antibody, V domains shown)
VH: EVQLQQSGAELVKPGASVKLSCTTSGFNIKATYIHWVQQRPEQGLEWIGRIDPANGNTKYDSKFQGKATITADTSSNTAYLQLSSLTSEDTAVYFCARSLHYYVFFDYWGQGTTLTVSS
VL: DIQMTQTTSSLSASLGDRVTISCSASQGISNYLNWYQQKPDGTVKLLIYSTSSLHSGVPSRFSGSGSGTDYSLTISSLEPEDIATYYCQQYSKLPLTFGAGTKLELKR
notes: as for B1

EC50 [1]: 0.28 µg/mL | EC50 [2]: 0.00967 µg/mL | EC50 value (ng/ml), inhibition of RAW264.7 differentiation [3]: 340 ng/mL | binding result [4]: no binding | EC50 [5]: 0.0118 µg/mL
B4: 114-5.9.4 (antibody, V domains shown)
VH: EVQLQQSGAELVKPGASVKLSCTASGFNLKGTYIHWVKQRPGQGLEWIGRIDPANANTKYDPKFQGKATIRTDTSSNTAYLQLSSLTSEDTAVYFCSSPSGHYDVWFAYWGQGTLVTVSP
VL: B3 VL with T7P, R18T, G28D, V44L, S50Y, S77N, Y91F
notes: as for B1

EC50 [1]: 0.93 µg/mL | EC50 [2]: 0.0111 µg/mL | EC50 value (ng/ml), inhibition of RAW264.7 differentiation [3]: 396 ng/mL | binding result [4]: no binding | EC50 [5]: 0.0112 µg/mL
B5: 114-2.402 (antibody, V domains shown)
VH: EVQLQQSGTELVKPGASVKLSCTLFGFNIKATYMHWVRQRPEQGLEWIGRIDPPNGNTKYDPKFQDKATIKVDTSSNTAYLQLSSLTSEDTAVYYCAREFNRYDVWLAYWGQGTLVTVSA
VL: B3 VL with I29V, S77N, I83V, L96F, A100S, L106I
notes: as for B1

EC50 [1]: 0.29 µg/mL | EC50 [2]: 0.016 µg/mL | EC50 value (ng/ml), inhibition of RAW264.7 differentiation [3]: 470 ng/mL | binding result [4]: no binding | EC50 [5]: 0.0159 µg/mL
B7: 114-7.37.26 (antibody, V domains shown)
VH: B6 VH with A24T, N84S
VL: B6 VL with V64A
notes: as for B1

EC50 [9]: 0.00182 µg/mL | IC50 [10]: 0.29 µg/mL
B14: G7 (antibody, human IgG2, kappa, V domains shown)
VH: B8 VH with K12V, K13Q, A40T, F68V, K76T, K87R
VL: B8 VL with R43K, A64S, S81A, E87A
notes: 293F cells

IC50 [6]: 0.5 µg/mL | EC50 [7]: 0.00328 µg/mL
B15: G9 (antibody, human IgG2, kappa, V domains shown)
VH: B8 VH with K12V, K13Q, A40T, F68V, K76T, K87R
VL: B8 VL with R43K, A64S, S81R, E87A
notes: 293F cells

IC50 [6]: 0.19 µg/mL | EC50 [7]: 0.0019 µg/mL
B16: G11 (antibody, human IgG2, kappa, V domains shown)
VH: B8 VH
VL: B8 VL with R43K, A64S, S81A, E87A
notes: 293F cells

IC50 [6]: 0.31 µg/mL | EC50 [7]: 0.00234 µg/mL
B18: G13 (antibody, human IgG2, kappa, V domains shown)
VH: B8 VH
VL: B8 VL with R43K, A64S, S81R, E87A
notes: 293F cells

EC50 [1]: 0.33 µg/mL | EC50 [2]: 0.00686 µg/mL | EC50 value (ng/ml), inhibition of RAW264.7 differentiation [3]: 315 ng/mL | binding result [4]: no binding | EC50 [5]: 0.00623 µg/mL
B19: 114-5.7.14 (antibody, V domains shown)
VH: EVQLQQSGAELVKPGASVKLSCTASGFKIKDTYMHWVRQRPEQGLEWIGRIDSANGNIKYDPKFQGKATITADTSSKTAYLHLSSLTFEDTAVYYCSRPKSNYDFWLPYWGQGTLVTVSA
VL: DIQMTQTTSSLSASLGDRVTISCSASQGISNYLNWYQQKPDGTVKLLIYYTSSLHSGVPSRFSGSGSGTDYSLTISNLEPEDIATYYCQQYSKLPLTFGAGTKLELK
notes: as for B1
